# In the supplement of paper PMC9112550, “Optimization of the antimicrobial peptide Bac7 by deep mutational scanning” (BMC Biology, 2022):
# Test system: Escherichia coli TOP10
# Test: shrunken log2 fold change of peptide-encoding DNA abundance (4.5 h post-induction vs induction); higher = less antimicrobial activity (less host growth inhibition)
# Conditions: time post-induction: 4.5 h; library: site-saturation at positions 5, 18, 19, 20
# 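Further: peptides expressed intracellularly from a pBAD plasmid library in pooled LB shake-flask culture, induced with 0.3% L-arabinose, DNA abundance read by NGS, three biological replicates, DESeq2 with apeglm shrinkage.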
row,Sequence,shrunken log2 fold change
1,RRIRFRPPRLPRPRPRPPSKPRP,-0.148
2,RRIRFRPPRLPRPRPRPPSVPRP,0.08
3,RRIRFRPPRLPRPRPRPPWEPRP,0.124
4,RRIRFRPPRLPRPRPRPPYFPRP,0.0621
5,RRIRFRPPRLPRPRPRPPYIPRP,-0.282
6,RRIRFRPPRLPRPRPRPPYWPRP,0.191
7,RRIRFRPPRLPRPRPRPQARPRP,0.148
8,RRIRFRPPRLPRPRPRPQCGPRP,-0.0775
9,RRIRFRPPRLPRPRPRPQCVPRP,-0.276
10,RRIRFRPPRLPRPRPRPQDAPRP,-0.0849
11,RRIRFRPPRLPRPRPRPQEGPRP,-0.00638
12,RRIRFRPPRLPRPRPRPQFAPRP,0.0456
13,RRIRFRPPRLPRPRPRPQFNPRP,-0.628
14,RRIRFRPPRLPRPRPRPQGKPRP,-0.227
15,RRIRFRPPRLPRPRPRPQHRPRP,-0.0907
16,RRIRFRPPRLPRPRPRPQKCPRP,-0.332
17,RRIRFRPPRLPRPRPRPQMWPRP,-0.0128
18,RRIRFRPPRLPRPRPRPQPMPRP,0.302
19,RRIRFRPPRLPRPRPRPQQKPRP,0.0925
20,RRIRFRPPRLPRPRPRPQQMPRP,-0.0245
21,RRIRFRPPRLPRPRPRPQRGPRP,0.353
22,RRIRFRPPRLPRPRPRPQRHPRP,-0.0437
23,RRIRFRPPRLPRPRPRPQRMPRP,-0.29
24,RRIRFRPPRLPRPRPRPQRRPRP,-0.177
25,RRIRFRPPRLPRPRPRPQYDPRP,-0.75

row,Sequence,shrunken log2 fold change
1,RRIRFRPPRLPRPRPRPQYFPRP,-0.416
2,RRIRFRPPRLPRPRPRPQYNPRP,-1.05
3,RRIRFRPPRLPRPRPRPQYWPRP,-0.462
4,RRIRFRPPRLPRPRPRPRDTPRP,0.0411
5,RRIRFRPPRLPRPRPRPRENPRP,0.449
6,RRIRFRPPRLPRPRPRPREQPRP,0.204
7,RRIRFRPPRLPRPRPRPRFFPRP,0.0547
8,RRIRFRPPRLPRPRPRPRFYPRP,-0.0297
9,RRIRFRPPRLPRPRPRPRGQPRP,0.415
10,RRIRFRPPRLPRPRPRPRGRPRP,0.454
11,RRIRFRPPRLPRPRPRPRGVPRP,0.0819
12,RRIRFRPPRLPRPRPRPRHAPRP,0.389
13,RRIRFRPPRLPRPRPRPRHFPRP,0.0931
14,RRIRFRPPRLPRPRPRPRHNPRP,-0.275
15,RRIRFRPPRLPRPRPRPRKCPRP,-0.0611
16,RRIRFRPPRLPRPRPRPRKEPRP,-0.0425
17,RRIRFRPPRLPRPRPRPRLRPRP,0.378
18,RRIRFRPPRLPRPRPRPRNRPRP,-0.182
19,RRIRFRPPRLPRPRPRPRNWPRP,0.19
20,RRIRFRPPRLPRPRPRPRPQPRP,0.684
21,RRIRFRPPRLPRPRPRPRPRPRP,1.65
22,RRIRFRPPRLPRPRPRPRQNPRP,0.353
23,RRIRFRPPRLPRPRPRPRSGPRP,0.444
24,RRIRFRPPRLPRPRPRPRSIPRP,-0.256
25,RRIRFRPPRLPRPRPRPRTFPRP,-0.179

row,Sequence,shrunken log2 fold change
1,RRIRFRPPRLPRPRPRPRVYPRP,-0.217
2,RRIRFRPPRLPRPRPRPRYDPRP,-0.408
3,RRIRFRPPRLPRPRPRPRYHPRP,-0.295
4,RRIRFRPPRLPRPRPRPSAHPRP,-0.352
5,RRIRFRPPRLPRPRPRPSCFPRP,-0.0773
6,RRIRFRPPRLPRPRPRPSDVPRP,0.0142
7,RRIRFRPPRLPRPRPRPSEDPRP,0.00214
8,RRIRFRPPRLPRPRPRPSGDPRP,-0.202
9,RRIRFRPPRLPRPRPRPSGIPRP,-0.287
10,RRIRFRPPRLPRPRPRPSGRPRP,0.0486
11,RRIRFRPPRLPRPRPRPSHKPRP,-0.121
12,RRIRFRPPRLPRPRPRPSKSPRP,-0.123
13,RRIRFRPPRLPRPRPRPSLFPRP,-0.291
14,RRIRFRPPRLPRPRPRPSLPPRP,0.0593
15,RRIRFRPPRLPRPRPRPSMKPRP,-0.753
16,RRIRFRPPRLPRPRPRPSPEPRP,0.24
17,RRIRFRPPRLPRPRPRPSPKPRP,0.188
18,RRIRFRPPRLPRPRPRPSQCPRP,0.153
19,RRIRFRPPRLPRPRPRPSRDPRP,1.18
20,RRIRFRPPRLPRPRPRPSSFPRP,-0.227
21,RRIRFRPPRLPRPRPRPSSPPRP,-0.284
22,RRIRFRPPRLPRPRPRPSVIPRP,-0.339
23,RRIRFRPPRLPRPRPRPSVTPRP,-0.322
24,RRIRFRPPRLPRPRPRPSWMPRP,-0.0113
25,RRIRFRPPRLPRPRPRPSWQPRP,-0.149
